Reference: the supplement of paper PMC10567573
± gives the standard deviation.

Experiment: protein stability index of a GFP-peptide fusion (GPS, HEK-293T) (PSI 1-6); higher = more stable
Conditions: c terminus: a fixed tail appended
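Also: 24-mer peptide tiles fused after GFP, lentivirally expressed, FACS-sorted into six equal bins by GFP/DsRed ratio, decoded by Illumina sequencing, PSI is the read-weighted mean bin number.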

Sequence	protein stability index (treatment: DMSO)	protein stability index (treatment: MLN4924 1 uM, 8 h)
FSDLQVYSYRRLGEEALSLQALDP [SLC22A15]	2.73 ± 0.34	2.84 ± 0.31
FSKNLKLGIHEDSTNRRRLSELLR [HSP90AB1]	–	2.43 ± 0.39
FSRVCRLHRGQLSLFCLEDKELLC [TRIM35]	2.22 ± 0.56	2.19 ± 0.18
FTGVITQGRNSLWLSDWVTSYKVM [CPXM2]	3.21 ± 0.45	2.94 ± 0.84
FTSGTGHFTAMVWKNTKKMGVGKA [GLIPR2]	2.66 ± 0.29	2.74 ± 0.2
FVFFVLLNMFLAIINDTYSEVKEE [PKD2L1]	3.36 ± 0.23	3.12 ± 0.26
FYHDHTKIIICSQNEEYLLTYINE [PLK2]	2.57 ± 0.59	2.58 ± 0.54
GAARSFQEVTEPAVVAVDRQAIFP [PXN]	4.1 ± 0.26	4.04 ± 0.59
GACPGADEAGGGAEGDSWEEEGFG [WEE1]	5.35 ± 0.24	5.54 ± 0.21
GAGAGSSLLDVAEPGGPGWLPESD [SMAD6]	5.23 ± 0.19	5.01 ± 0.25
GASHVLALSTERELFAWGRGDSGR [NEK8]	3.38 ± 0.31	3.42 ± 0.26
GCANNLLVHHRAAHSNEILIFSVQ [KLHDC2]	2.49 ± 1	2.67 ± 0.58
GCEDEYLVNPTCQVLVKDFTFEGF [ZER1]	2.89 ± 0.47	2.85 ± 0.4
GCFRSQGASLRLAVEDGLQQFKQY [M1AP]	2.88 ± 0.68	2.78 ± 0.074
GCSLHEEDTQRHETYHQQGQCQVL [TCAP]	4.35 ± 0.14	4.32 ± 0.41
GCSSTQGNGRPGRPSQYRPDGLRS [LCOR]	4.07 ± 0.085	4.14 ± 0.17
GDKNEEQVLNAIEAYTEHRPEITS [ZER1]	5.33 ± 0.2	5.16 ± 0.22
GDVCYADVYRDGTGVVEFVRKEDM [SRSF1]	4.22 ± 0.26	4.37 ± 0.042
GEDQWNPNGKHSTNFVSRYDPRFN [KLHL14]	3.83 ± 0.23	3.57 ± 0.41
GEEQVELSTIEELIKDAIVSTQPA [C2CD2L]	4.69 ± 0.3	4.7 ± 0.16
GFGSKNTAFCTHVFPETAFIAVTS [TBX5]	2.28 ± 0.42	2.09 ± 0.3
GFKHRLWVYSGRRGVHCWVCDESV [PRIM1]	2.81 ± 1.4	2.31 ± 0.59
GFVDLLDGENLKNEEETPSCMASL [CDC25A]	4.64 ± 0.25	4.62 ± 0.13

Sequence	protein stability index (treatment: DMSO)	protein stability index (treatment: MLN4924 1 uM, 8 h)
GGFMGYSAENIPGCSSSGSCSQGS [CRY1]	4.14 ± 0.3	4.4 ± 0.28
GGGYSSVRYSDCCERVVINVSGLR [KCNA4]	2.23 ± 0.26	2.34 ± 0.29
GGHTREARIQTLEPDNWMKEVMLF [RSAD1]	2.51 ± 0.25	2.34 ± 0.34
GGIQEGAVTPAGVVNKYQINGLQA [DHCR7]	3.93 ± 0.27	4.17 ± 0.22
GGLGTPLRLPMLNTEVVQVAAGRT [NEK8]	4.11 ± 0.35	4.06 ± 0.31
GGPADLAGLEDEDVIIEVNGVNVL [PDZK1]	–	4.46 ± 0.32
GGQEEASQEAGLPAGAGPSPTFPA [SEPHS2]	5.56 ± 0.1	5.25 ± 0.23
GGRTALHHAALNGHVEMVNLLLAK [ANKRD44]	2.76 ± 0.35	2.69 ± 0.23
GGTPIRGALQIEQSEESDQGKYEC [PTPRD]	5.57 ± 0.38	5.4 ± 0.31
GGYETFYSEYPECCVDVKPISQEK [DUSP5]	4.25 ± 0.29	4.22 ± 0.18
GHSSSVEMFLYFEDHGLVTCSADH [WDR41]	2.16 ± 0.34	2.25 ± 0.29
GIENEEDTSKQKKMETMYPFIVTL [ZNF449]	2.39 ± 0.38	2.36 ± 0.1
GIGGGIGGGSSRISSVLAGGSCRA [KRT16]	3.87 ± 0.23	4.05 ± 0.24
GILGFNSAEWFITAVGAILAGGLC [ACSBG2]	–	3.62 ± 0.54
GKDEIEAAVKAAREAFPSWSSRSP [ALDH8A1]	4.5 ± 0.32	4.29 ± 0.23
GKEVSGDQIEDMFEQGKWDVFSEN [STX11]	4.33 ± 0.31	4.31 ± 0.35
GKFIRLKNTSEQDQPMGGWEMIRK [LMNB1]	3.73 ± 0.083	3.7 ± 0.2
GKKRCKDIKRLLVNFMYLQSLLQP [SMG5]	2.428 ± 0.007	2.48 ± 0.41
GKPGDRNCPEFPPPDRTLGCWATD [RSPH3]	4.03 ± 0.28	4.32 ± 0.24
GLADVEANYVIVRAYQYTTLTSVQ [SLC35F2]	2.24 ± 0.53	2.66 ± 0.43
GLPGKVFACLSVLFVTVTAVNLSV [KCNG1]	3.36 ± 0.17	3.053 ± 0.022
GLSGSGVAFVCAFSEALAEGAVKM [PYCR3]	2.58 ± 0.65	2.25 ± 0.34
GMLAPAAGPAFDSDPEISDVDEDE [PPFIA4]	5.35 ± 0.73	5.54 ± 0.24

Sequence	protein stability index (treatment: DMSO)	protein stability index (treatment: MLN4924 1 uM, 8 h)
GNGKNLVDFTFVENVVHGHILAAE [NSDHL]	3.08 ± 0.36	2.91 ± 0.51
GNLEVGEPQSEPVRVLDMVAKLES [FBXO34]	5.01 ± 0.34	4.87 ± 0.2
GPAAFVDYFERNWEPRRDMWVRFR [ZSWIM9]	2.4 ± 0.12	2.46 ± 0.37
GPALAGEPAGSLRELGVWRSLLRL [C2CD2L]	2.66 ± 0.23	2.56 ± 0.03
GPLGDCLRDWEDLQQDFQNIQETH [TMEM120A]	4.63 ± 0.31	4.41 ± 0.32
GPVRSSSGMGGRAPVSRGRDSYGG [RBMX]	4.32 ± 0.12	4.53 ± 0.17
GPYEGGGPVAGLDDSGGPTPSSYA [ZBTB22]	4.95 ± 0.24	4.97 ± 0.17
GQTGTRLTPADKAEHMKRQRHPRL [AUP1]	4.32 ± 0.18	4.6 ± 0.075
GRGSLSSGGQTSWDSGCLAPPSTR [PLEKHN1]	4.44 ± 0.24	4.15 ± 0.35
GSDKQQQQQHIECVVCGDKSSGKH [NR2F2]	4.93 ± 0.35	5.07 ± 0.18
GSLYVFGGTTGYIYSTDLHKLDLN [KLHDC10]	2.4 ± 0.5	2.66 ± 0.46
GSMKIKSSWDIDGRATKRRKKSGD [FBXO34]	–	4.34 ± 0.81
GSNPSSSNSSQDSLHKGAKRKGIK [PPFIA4]	5.14 ± 0.69	5.53 ± 0.35
GSSSFSLKGYPSLMRSQSPKAQPQ [TRIM29]	3.76 ± 0.26	3.73 ± 0.28
GSVLRIQPLRTPRDEAIYECVASN [PTPRD]	3.24 ± 0.12	3.17 ± 0.43
GTDQVCVLEWGAEGVAGKSGLEKE [FCHSD1]	5.01 ± 0.25	5.07 ± 0.15
GTEYTCKVYPVQEALAVLEPYARL [TRIB3]	2.62 ± 0.23	2.48 ± 0.33
GVGTSMEGASPLSERCQRQLQSLC [FANCE]	3.9 ± 0.16	3.78 ± 0.15
GVILHSLKTQSLEGKRKAFYTCAS [OR4A15]	2.48 ± 0.27	2.19 ± 0.27
GYGGSRDSYSSSRSDLYSSGRDRV [RBMX]	3.828 ± 0.029	3.99 ± 0.37
HASSYISPEKEEQYIAQFTSQFLS [PRAME]	3.06 ± 0.44	3.31 ± 0.27
HDGSSYLNSVERYDPKTNQWSSDV [KLHL20]	4.46 ± 0.25	4.27 ± 0.4
HDSVVEMIRKGGDQTSLLVVDKET [PDZK1]	–	4.76 ± 0.33

Sequence	protein stability index (treatment: DMSO)	protein stability index (treatment: MLN4924 1 uM, 8 h)
HESFFSLFSDPRSTRLTRIHLRED [ZER1]	3.04 ± 0.26	3.14 ± 0.11
HFHRTLKEACDQHGPDLYPKFKKW [CPOX]	2.49 ± 0.21	2.75 ± 0.14
HFQDNLHSVNRDLNELERLSNLVG [MED27]	3.47 ± 0.19	3.52 ± 0.36
HGEADRSTLKKALPTLSHIQEAQS [YJU2B]	4.81 ± 0.3	4.7 ± 0.21
HGFLFMIFQIGVLGFGPTYVVLAY [SOAT1]	2.86 ± 0.85	2.71 ± 0.8
HGIRPPQLEQPEKMPVLKAEASHY [RHOBTB3]	4.41 ± 0.11	4.41 ± 0.2
HGSQGTYSNTKENGINGELTSADR [MAP2]	5.11 ± 0.24	5.17 ± 0.22
HGVRAKVQPQARKKEMEMRQLQRG [CPN1]	4.38 ± 0.38	4.5 ± 0.25
HHRVQENQMDKARRHPQGAWKELD [CHGB]	4.45 ± 0.11	4.4 ± 0.11
HIIRIGDLKPTGEIPKQVKVKKLK [DENND6A]	2.73 ± 0.2	3.12 ± 0.19
HLESKDINQEELRALEEVEMKLQK [C10orf62]	5.31 ± 0.32	5.34 ± 0.24
HLKRHFMFRNHLCLVFELLSYNLY [DYRK1B]	3.34 ± 0.23	3.29 ± 0.88
HLSPLVVHRQLSHLYAEPQKSPWC [ESR2]	2.51 ± 0.36	2.79 ± 0.36
HNRSNNKYSYTSTSDDNLLKNIEL [KCTD13]	3.66 ± 0.12	3.73 ± 0.16
HPYSTTFQESASTPETRAKFTQDN [TEKT4]	4.54 ± 0.13	4.67 ± 0.31
HQLDFVQVKASSPVPATPILQLEE [TRIM9]	4.54 ± 0.094	4.49 ± 0.33
HQYWPAERSARYQYFVVDPMAEYN [PTPRD]	2.4 ± 0.19	2.51 ± 0.32
HRHTSHLGHAVLPSNARGPILSRS [SPRY1]	3.69 ± 0.14	3.94 ± 0.13
HSGSVVGAGLPQFQSISLRKIQFN [CLCN6]	2.85 ± 0.24	3 ± 0.27
HSMKPHPAITATLLDFMCRIIPNF [INTS3]	2.96 ± 0.45	3 ± 0.88
HSTTPSGPGDEVARGIAGEKFDIV [ARFIP2]	4.75 ± 0.34	4.64 ± 0.15
HTGEPLFSGSNEVDQMNRIVEVLG [DYRK1B]	3.59 ± 0.21	3.57 ± 0.25
